The supplement of paper PMC9112550, “Optimization of the antimicrobial peptide Bac7 by deep mutational scanning” (BMC Biology, 2022)

Tested on: Escherichia coli TOP10
Test: shrunken log2 fold change of peptide-encoding DNA abundance (4.5 h post-induction vs induction); higher = less antimicrobial activity (less host growth inhibition)
Settings: time post-induction: 4.5 h; library: site-saturation at positions 5, 18, 19, 20
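Further: peptides expressed intracellularly from a pBAD plasmid library in pooled LB shake-flask culture, induced with 0.3% L-arabinose, DNA abundance read by NGS, three biological replicates, DESeq2 with apeglm shrinkage.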

Sequence | shrunken log2 fold change
RRIRLRPPRLPRPRPRPEWTPRP | -0.019
RRIRLRPPRLPRPRPRPEYCPRP | 0.0552
RRIRLRPPRLPRPRPRPFAFPRP | -0.442
RRIRLRPPRLPRPRPRPFAIPRP | 0.0494
RRIRLRPPRLPRPRPRPFCDPRP | -0.366
RRIRLRPPRLPRPRPRPFDFPRP | -0.281
RRIRLRPPRLPRPRPRPFDGPRP | -0.00197
RRIRLRPPRLPRPRPRPFDLPRP | -0.0989
RRIRLRPPRLPRPRPRPFDYPRP | -0.974
RRIRLRPPRLPRPRPRPFESPRP | -0.168
RRIRLRPPRLPRPRPRPFHEPRP | -0.101
RRIRLRPPRLPRPRPRPFKCPRP | 2.83
RRIRLRPPRLPRPRPRPFKLPRP | -0.294
RRIRLRPPRLPRPRPRPFKPPRP | 0.2
RRIRLRPPRLPRPRPRPFLSPRP | -0.643
RRIRLRPPRLPRPRPRPFNRPRP | -0.00257
RRIRLRPPRLPRPRPRPFRCPRP | -0.181
RRIRLRPPRLPRPRPRPFRGPRP | -0.0479
RRIRLRPPRLPRPRPRPFRVPRP | 0.128
RRIRLRPPRLPRPRPRPFSCPRP | 0.0222
RRIRLRPPRLPRPRPRPFSPPRP | 2.3
RRIRLRPPRLPRPRPRPFTEPRP | -0.163
RRIRLRPPRLPRPRPRPFTIPRP | -0.174
RRIRLRPPRLPRPRPRPFVMPRP | -0.241
RRIRLRPPRLPRPRPRPFWEPRP | 0.117

Sequence | shrunken log2 fold change
RRIRLRPPRLPRPRPRPFWRPRP | 0.252
RRIRLRPPRLPRPRPRPFYEPRP | -0.426
RRIRLRPPRLPRPRPRPGANPRP | -0.146
RRIRLRPPRLPRPRPRPGAVPRP | 0.375
RRIRLRPPRLPRPRPRPGDQPRP | 0.0619
RRIRLRPPRLPRPRPRPGECPRP | 0.159
RRIRLRPPRLPRPRPRPGFAPRP | 0.36
RRIRLRPPRLPRPRPRPGFLPRP | 0.0856
RRIRLRPPRLPRPRPRPGFMPRP | -0.382
RRIRLRPPRLPRPRPRPGFYPRP | -0.102
RRIRLRPPRLPRPRPRPGGEPRP | 0.343
RRIRLRPPRLPRPRPRPGHAPRP | 0.21
RRIRLRPPRLPRPRPRPGHNPRP | -0.371
RRIRLRPPRLPRPRPRPGIDPRP | -0.0208
RRIRLRPPRLPRPRPRPGIPPRP | 0.215
RRIRLRPPRLPRPRPRPGKHPRP | -0.0923
RRIRLRPPRLPRPRPRPGKLPRP | -0.00186
RRIRLRPPRLPRPRPRPGLIPRP | 0.045
RRIRLRPPRLPRPRPRPGLMPRP | -0.0199
RRIRLRPPRLPRPRPRPGMYPRP | -0.115
RRIRLRPPRLPRPRPRPGNIPRP | -0.0276
RRIRLRPPRLPRPRPRPGPTPRP | 0.109
RRIRLRPPRLPRPRPRPGQCPRP | -0.0373
RRIRLRPPRLPRPRPRPGQRPRP | 0.0889
RRIRLRPPRLPRPRPRPGRCPRP | 0.341

Sequence | shrunken log2 fold change
RRIRLRPPRLPRPRPRPGRHPRP | 0.0767
RRIRLRPPRLPRPRPRPGRMPRP | 0.123
RRIRLRPPRLPRPRPRPGSCPRP | 0.0403
RRIRLRPPRLPRPRPRPGSEPRP | -0.0984
RRIRLRPPRLPRPRPRPGTNPRP | -0.0983
RRIRLRPPRLPRPRPRPGTPPRP | 0.0973
RRIRLRPPRLPRPRPRPGYHPRP | -0.421
RRIRLRPPRLPRPRPRPGYQPRP | -0.133
RRIRLRPPRLPRPRPRPHCCPRP | -0.376
RRIRLRPPRLPRPRPRPHCKPRP | -0.708
RRIRLRPPRLPRPRPRPHDDPRP | -0.115
RRIRLRPPRLPRPRPRPHDLPRP | -0.308
RRIRLRPPRLPRPRPRPHFEPRP | 0.118
RRIRLRPPRLPRPRPRPHFSPRP | -0.189
RRIRLRPPRLPRPRPRPHHDPRP | -0.694
RRIRLRPPRLPRPRPRPHHIPRP | -0.343
RRIRLRPPRLPRPRPRPHHMPRP | -0.353
RRIRLRPPRLPRPRPRPHHSPRP | -0.506
RRIRLRPPRLPRPRPRPHIRPRP | -0.108
RRIRLRPPRLPRPRPRPHIVPRP | -0.105
RRIRLRPPRLPRPRPRPHKCPRP | -0.0456
RRIRLRPPRLPRPRPRPHKSPRP | -0.399
RRIRLRPPRLPRPRPRPHLNPRP | 0.141
RRIRLRPPRLPRPRPRPHMLPRP | -0.264
RRIRLRPPRLPRPRPRPHNYPRP | -0.749

Sequence | shrunken log2 fold change
RRIRLRPPRLPRPRPRPHPKPRP | -0.0255
RRIRLRPPRLPRPRPRPHQCPRP | 0.0182
RRIRLRPPRLPRPRPRPHQVPRP | 0.00465
RRIRLRPPRLPRPRPRPHQYPRP | -0.297
RRIRLRPPRLPRPRPRPHRPPRP | -0.189
RRIRLRPPRLPRPRPRPHRQPRP | 0.115
RRIRLRPPRLPRPRPRPHTHPRP | -0.441
RRIRLRPPRLPRPRPRPHVMPRP | -0.266
RRIRLRPPRLPRPRPRPHYIPRP | -0.615
RRIRLRPPRLPRPRPRPIALPRP | -0.0572
RRIRLRPPRLPRPRPRPIASPRP | -0.0599
RRIRLRPPRLPRPRPRPICCPRP | -0.205
RRIRLRPPRLPRPRPRPICEPRP | 0.0628
RRIRLRPPRLPRPRPRPICFPRP | 0.104
RRIRLRPPRLPRPRPRPICMPRP | -0.456
RRIRLRPPRLPRPRPRPIDYPRP | -0.0867
RRIRLRPPRLPRPRPRPIFFPRP | 0.103
RRIRLRPPRLPRPRPRPIFNPRP | -0.221
RRIRLRPPRLPRPRPRPIFYPRP | -0.223
RRIRLRPPRLPRPRPRPIHEPRP | 0.139
RRIRLRPPRLPRPRPRPIHSPRP | -1.61
RRIRLRPPRLPRPRPRPILGPRP | -0.0186
RRIRLRPPRLPRPRPRPILMPRP | 0.0581
RRIRLRPPRLPRPRPRPIMAPRP | 0.0391
RRIRLRPPRLPRPRPRPIMGPRP | -0.0219

Sequence | shrunken log2 fold change
RRIRLRPPRLPRPRPRPINEPRP | -0.0016
RRIRLRPPRLPRPRPRPIPNPRP | -0.135
RRIRLRPPRLPRPRPRPIQAPRP | 0.0789
RRIRLRPPRLPRPRPRPIQSPRP | -0.0832
RRIRLRPPRLPRPRPRPIRHPRP | -0.144
RRIRLRPPRLPRPRPRPIRIPRP | -0.379
RRIRLRPPRLPRPRPRPISLPRP | -0.36
RRIRLRPPRLPRPRPRPISMPRP | -0.801
RRIRLRPPRLPRPRPRPISRPRP | 0.0488
RRIRLRPPRLPRPRPRPIVCPRP | 0.0348
RRIRLRPPRLPRPRPRPIVVPRP | -0.0319
RRIRLRPPRLPRPRPRPIYSPRP | 0.0408
RRIRLRPPRLPRPRPRPKARPRP | -0.00543
RRIRLRPPRLPRPRPRPKDLPRP | -0.242
RRIRLRPPRLPRPRPRPKERPRP | -0.00664
RRIRLRPPRLPRPRPRPKEWPRP | 0.157
RRIRLRPPRLPRPRPRPKFIPRP | -0.304
RRIRLRPPRLPRPRPRPKFKPRP | -0.147
RRIRLRPPRLPRPRPRPKFMPRP | 0.149
RRIRLRPPRLPRPRPRPKGMPRP | -0.0948
RRIRLRPPRLPRPRPRPKGPPRP | 0.28
RRIRLRPPRLPRPRPRPKHGPRP | -0.0363
RRIRLRPPRLPRPRPRPKIWPRP | -0.0443
RRIRLRPPRLPRPRPRPKLQPRP | 0.356
RRIRLRPPRLPRPRPRPKMWPRP | 0.485

Sequence | shrunken log2 fold change
RRIRLRPPRLPRPRPRPKMYPRP | -0.14
RRIRLRPPRLPRPRPRPKNFPRP | 0.492
RRIRLRPPRLPRPRPRPKNTPRP | -0.333
RRIRLRPPRLPRPRPRPKPIPRP | 0.111
RRIRLRPPRLPRPRPRPKPMPRP | 0.964
RRIRLRPPRLPRPRPRPKQKPRP | 0.0979
RRIRLRPPRLPRPRPRPKQNPRP | 0.2
RRIRLRPPRLPRPRPRPKQSPRP | -0.00745
RRIRLRPPRLPRPRPRPKRCPRP | -0.0395
RRIRLRPPRLPRPRPRPKSLPRP | -0.467
RRIRLRPPRLPRPRPRPKTGPRP | 0.25
RRIRLRPPRLPRPRPRPKVEPRP | -0.0879
RRIRLRPPRLPRPRPRPKVKPRP | -0.0219
RRIRLRPPRLPRPRPRPKVPPRP | 0.0509
RRIRLRPPRLPRPRPRPKYWPRP | -0.131
RRIRLRPPRLPRPRPRPLAIPRP | 0.221
RRIRLRPPRLPRPRPRPLCTPRP | 0.0663
RRIRLRPPRLPRPRPRPLDAPRP | 0.112
RRIRLRPPRLPRPRPRPLDQPRP | 0.105
RRIRLRPPRLPRPRPRPLDWPRP | 0.124
RRIRLRPPRLPRPRPRPLEQPRP | 0.0155
RRIRLRPPRLPRPRPRPLFHPRP | -0.233
RRIRLRPPRLPRPRPRPLHAPRP | 0.261
RRIRLRPPRLPRPRPRPLHSPRP | -0.0843
RRIRLRPPRLPRPRPRPLKYPRP | -0.0803
